# System: patients with locally advanced or metastatic urothelial cancer
# Test: Same phase 2 study: safety (adverse events, NCI CTCAE v4.03)
# Format: in vivo, human
# Description: Safety assessments will be based on the information collected through the safety surveillance process and will include the data from recorded adverse events (AEs) including SAEs, recording of concomitant medication, physical examination findings, cardiac monitoring, and laboratory tests.
# The assessment of safety during the course of this study will consist of the surveillance and recording of AEs including SAEs, recording of concomitant medication, and measurements of protocol-specified physical examination findings, cardiac monitoring, and laboratory tests.
# AE severity should be graded using the National Cancer Institute's Common Terminology Criteria for Adverse Events (NCI CTCAE), Version 4.03. These criteria are provided in the study manual.
# An overview of AEs will provide a tabulation of the incidence of all AEs, treatment-emergent AEs, treatment-related AEs, Grade 3 and higher AEs. SAEs, treatment-related SAEs, deaths, and AEs leading to study treatment discontinuation. Adverse events will be defined as treatment emergent if they are newly occurring or worsened following study treatment.
# AEs will be classified by system organ class and preferred tem using the Medical Dictionary for Regulatory Activities (MedDRA) and graded using NCI CTCAE, Version 4.03.
# The incidence of AEs will be summarized by system organ class, preferred term, severity and relationship to study drug. In the event of multiple occurrences of the same AE in one patient, the AE will be counted once as the occurrence for the maximum grade. AEs leading to premature discontinuation of study drug will be summarized and listed in the same manner.
# [1] = Cohort 2 (N = 89), additional 3 months follow-up
# [2] = Cohort 2 (N = 89), count (percent)
# [3] = Cohort 2, additional 3 months follow-up
substance,measurement,setting,value
enfortumab vedotin: Nectin-4 directed ADC: fully human anti-nectin-4 IgG1 kappa antibody (AGS-22C3) conjugated to MMAE via protease-cleavable maleimidocaproyl valine-citrulline linker,"TRAEs, Any Grade: Neutropenia",[1],11 (12) n (%)
same,"TRAEs, Any Grade: Overall",[1],86 (97) n (%)
same,"TRAEs, Any Grade: Peripheral sensory neuropathy",[1],44 (49) n (%)
same,"TRAEs, Any Grade: Pruritus",[1],27 (30) n (%)
same,"TRAEs, Any Grade: Rash maculo-papular",[1],27 (30) n (%)
same,"TRAEs, Any Grade: nnn Weight decreased",[1],23 (26) n (%)
same,"TRAEs, ≥Grade 3: Anemia",[1],5 (6) n (%)
same,"TRAEs, ≥Grade 3: Decreased appetite",[1],5 (6) n (%)
same,"TRAEs, ≥Grade 3: Diarrhea",[1],5 (6) n (%)
same,"TRAEs, ≥Grade 3: Fatigue",[1],6 (7) n (%)
same,"TRAEs, ≥Grade 3: Hyperglycemia",[1],5 (6) n (%)
same,"TRAEs, ≥Grade 3: Lipase increased",[1],5 (6) n (%)
same,"TRAEs, ≥Grade 3: Nausea",[1],1 (1) n (%)
same,"TRAEs, ≥Grade 3: Neutropenia",[1],8 (9) n (%)
same,"TRAEs, ≥Grade 3: Overall",[1],49 (55) n (%)
same,"TRAEs, ≥Grade 3: Peripheral sensory neuropathy",[1],3 (3) n (%)
same,"TRAEs, ≥Grade 3: Pruritus",[1],3 (3) n (%)
same,"TRAEs, ≥Grade 3: Rash maculo-papular",[1],7 (8) n (%)
same,"TRAEs, ≥Grade 3: nnn Weight decreased",[1],1 (1) n (%)
same,TEAEs leading to death (excluding disease progression): Acute kidney injury,[2],2 (2.2)
same,TEAEs leading to death (excluding disease progression): Metabolic acidosis,[2],1 (1.1)
same,TEAEs leading to death (excluding disease progression): Multiple organ dysfunction syndrome,[2],1 (1.1)
same,TEAEs leading to death (excluding disease progression): Overall,[2],5 (5.6)
same,TEAEs leading to death (excluding disease progression): Sepsis,[2],1 (1.1)
same,"Primary Cause of Death, treatment-related death","Cohort 2, Subject 10007-0180, death on study day 15",Metabolic acidosis
same,"Primary Cause of Death, treatment-related death","Cohort 2, Subject 10013-0190, death on study day 28",Acute kidney injury
same,"Primary Cause of Death, treatment-related death","Cohort 2, Subject 10030-0197, death on study day 25",Multiple organ
same,"Primary Cause of Death, treatment-related death","Cohort 2, Subject 82004-0178, death on study day 203",Pneumonitis
same,"Treatment-related TEAEs of interest: hyperglycemia, all grade",[3],10%
same,"Treatment-related TEAEs of interest: hyperglycemia, ≥G3",[3],6%
same,"Treatment-related TEAEs of interest: peripheral neuropathy, all grade",[3],56%
same,"Treatment-related TEAEs of interest: peripheral neuropathy, ≥G3",[3],8%
same,"Treatment-related TEAEs of interest: rash, all grade",[3],61%
same,"Treatment-related TEAEs of interest: rash, ≥G3",[3],17%
same,patients who discontinued treatment due to grade 3 dermatitis bullous,[3],one
same,skin reactions: grade 4 events,[3],1
same,skin reactions: grade 5 events,[3],no grade 5 events
same,treatment-related TEAEs (all-grade): alopecia,[3],51%
same,treatment-related TEAEs (all-grade): fatigue,[3],34%
same,treatment-related TEAEs (all-grade): peripheral sensory neuropathy,[3],49%
same,patients with severe cutaneous adverse reactions,"Cohort 2, irrespective of grade, additional 3 months follow-up",13
same,rate of hyperglycemia,"Cohort 2, patients with preexisting hyperglycemia",20%
same,rate of peripheral neuropathy,"Cohort 2, patients with preexisting peripheral neuropathy",60%
same,rate of hyperglycemia,"Cohort 2, patients without preexisting hyperglycemia",7%
same,rate of peripheral neuropathy,"Cohort 2, patients without preexisting peripheral neuropathy",55%
same,patients with severe cutaneous adverse reactions who had grade 3 events,"Cohort 2, stomatitis, skin exfoliation, dermatitis bullous, dermatitis exfoliative generalized",4
same,additional treatment-related deaths in the updated analysis,"Cohort 2, three-month follow-up",No additional treatment-related deaths
same,"AE of special interest, All Grade: Hyperglycemia",Total (N = 214),36 (16.8) N (%)
same,"AE of special interest, All Grade: IRR",Total (N = 214),14 (6.5) N (%)
same,"AE of special interest, All Grade: Ocular Events, Blurred Vision",Total (N = 214),30 (14.0) N (%)
same,"AE of special interest, All Grade: Ocular Events, Corneal Disorders",Total (N = 214),23 (10.7) N (%)
same,"AE of special interest, All Grade: Ocular Events, Dry Eye Disorders",Total (N = 214),78 (36.4) N (%)
same,"AE of special interest, All Grade: Peripheral Neuropathy",Total (N = 214),122 (57.0) N (%)
same,"AE of special interest, All Grade: Rash",Total (N = 214),126 (58.9) N (%)
same,"AE of special interest, ≥Gr 3: Hyperglycemia",Total (N = 214),18 (8.4) N (%)
same,"AE of special interest, ≥Gr 3: IRR",Total (N = 214),2 (0.9) N (%)
same,"AE of special interest, ≥Gr 3: Peripheral Neuropathy",Total (N = 214),12 (5.6) N (%)
same,"AE of special interest, ≥Gr 3: Rash",Total (N = 214),30 (14.0) N (%)
same,Any TEAEs,Total (N = 214),214 (100.0) n (%)
same,Any TEAEs leading to death,Total (N = 214),15 (7.0) n (%)
same,Any TEAEs leading to treatment discontinuation,Total (N = 214),38 (18.2) n (%)
same,Any grade 3-5 TEAEs,Total (N = 214),155 (72.4) n (%)
same,Any serious TEAEs,Total (N = 214),94 (43.9) n (%)
same,SAEs (All): Acute kidney injury,Total (N = 214),13 (6.1) n (%)
same,SAEs (All): Cellulitis,Total (N = 214),6 (2.8) n (%)
same,SAEs (All): Diarrhoea,Total (N = 214),6 (2.8) n (%)
same,SAEs (All): Febrile neutropenia,Total (N = 214),6 (2.8) n (%)
same,SAEs (All): Nausea,Total (N = 214),5 (2.3) n (%)
same,SAEs (All): Overall,Total (N = 214),94 (43.9) n (%)
same,SAEs (All): Pneumonia,Total (N = 214),6 (2.8) n (%)
same,SAEs (All): Sepsis,Total (N = 214),8 (3.7) n (%)
same,SAEs (All): Urinary tract infection,Total (N = 214),9 (4.2) n (%)
same,SAEs (Related): Acute kidney injury,Total (N = 214),4 (1.9) n (%)
same,SAEs (Related): Cellulitis,Total (N = 214),2 (0.9) n (%)
same,SAEs (Related): Diarrhoea,Total (N = 214),3 (1.4) n (%)
same,SAEs (Related): Febrile neutropenia,Total (N = 214),6 (2.8) n (%)
same,SAEs (Related): Nausea,Total (N = 214),4 (1.9) n (%)
same,SAEs (Related): Overall,Total (N = 214),39 (18.2) n (%)
same,SAEs (Related): Pneumonia,Total (N = 214),1 (0.5) n (%)
same,Treatment-related AE leading to discontinuation: Acute kidney injury,Total (N = 214),2 (0.9) n (%)
same,Treatment-related AE leading to discontinuation: Asthenia,Total (N = 214),1 (0.5) n (%)
same,Treatment-related AE leading to discontinuation: Dermatitis bullous,Total (N = 214),1 (0.5) n (%)
same,Treatment-related AE leading to discontinuation: Drug eruption,Total (N = 214),1 (0.5) n (%)
same,Treatment-related AE leading to discontinuation: Enterocolitis,Total (N = 214),1 (0.5) n (%)
same,Treatment-related AE leading to discontinuation: Fatigue,Total (N = 214),1 (0.5) n (%)
same,Treatment-related AE leading to discontinuation: Hyperglycaemia,Total (N = 214),1 (0.5) n (%)
same,Treatment-related AE leading to discontinuation: Interstitial lung disease,Total (N = 214),1 (0.5) n (%)
same,Treatment-related AE leading to discontinuation: Lipase increased,Total (N = 214),2 (0.9) n (%)
same,Treatment-related AE leading to discontinuation: Metabolic acidosis,Total (N = 214),1 (0.5) n (%)
